One substance from patent US6660492B1, “Chimeric serine proteases” (Boehringer Mannheim GmbH, priority 1997, dated 2003) can be followed below.

What all share (type): biochemical
What all share (settings): pH 8.0, RT, 405 nm

The nature of data set [1]: Activity determination and kinetic constants with chromogenic substrate Chromozym X. As for the experimental part: (§1) The activity of the renatured activated rFXTa proteases was determined with the chromogenic substrates Chromozym® X (N-methoxycarbonyl-D-Nle-Gly-Arg-pNA, Boehringer Mannheim GmbH, Mannheim, Cat. No. 789763), Chromozym® U (Bz-β-Ala-Gly-Arg-pNA, Boehringer Mannheim GmbH, Mannheim, Cat. No.836583), Chromozym® PK (Bz-Pro-Phe-Arg-pNA, Boehringer Mannheim GmbH, Mannheim, Cat. No. 378445) and Chromozym® TH (Tosyl-Gly-Pro-Arg-pNA, Boehringer Mannheim GmbH, Mannheim, Cat. No. 838268) in comparison with recombinant rFXa (rFX-EGF2-AP-CD; preparation and description see PCT/EP97/03027) and native human trypsin (Sigma-Aldrich Chemie GmbH, Deisenhofen, Germany, Cat. No. T6424). Abbreviations: Bz, benzoyl; pNA, p-nitroaniline.
(§2) 10-100 μl sample was filled up to 200 μl with 190-100 μl 50 mmol/l Tris-HCl, 150 mmol/l NaCl, 5 mmol/l CaCl2, 0.1% PEG 8000, pH 8.0 and 20 μl Chromozym® X, U, PK and TH (0.5-40 mmol/l) were added to and measured against a reagent blank value in an ELISA reader at a wavelength of 405 nm and RT. The activity and the kinetic constants were determined from the linear initial slope according to the Michaelis Menten equation.

Data set [2] can be described thus: Activity determination and kinetic constants with chromogenic substrate Chromozym U. As for the experimental part:
as §1, §2

Data set [3] is described as follows: Activity determination and kinetic constants with chromogenic substrate Chromozym PK. As for the experimental part: as §1, §2
A short description of data set [4]: Activity determination and kinetic constants with chromogenic substrate Chromozym TH. How it is done:
as §1, §2

Usually Km stands for the substrate concentration at which the rate is half of its maximum. What is called kcat is the number of substrate molecules converted per active site and unit of time at saturation. As for “trypsin: native human trypsin (Sigma-Aldrich, Cat. No. T6424)”, the Km in data set [1] is 43 µM; in data set [2], 208 µM; in data set [3], 17 µM; in data set [4] it was 13 µM. The turnover number (kcat) in data set [1] is 153 s⁻¹; in data set [2], 225 s⁻¹; in data set [3] it was 38 s⁻¹; in data set [4] it was 95 s⁻¹.
